Assay results as given in US7173007.

Biological target: T1, recombinant full-length hCAP18/LL-37 (residues 31-170)
T1 chain: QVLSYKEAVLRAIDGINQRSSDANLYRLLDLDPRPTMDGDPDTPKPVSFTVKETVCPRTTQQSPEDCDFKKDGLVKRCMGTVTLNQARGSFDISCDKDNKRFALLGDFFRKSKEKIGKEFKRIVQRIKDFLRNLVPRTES

B1: human neutrophil elastase (Calbiochem) (protein)
chain: IVGGRRARPHAWPFMVSLQLRGGHFCGATLIAPNFVMSAAHCVANVNVRAVRVVLGAHNLSRREPTRQVFAVQRIFENGYDPVNLLNDIVILQLNGSATINANVQVAQLPAQGRRLGNGVQCLAMGWGLLGRNRGIASVLQELNVTVVTSLCRRSNVCTLVRGRQAGVCFGDSGSPLVCNGLIHGIASFVRGGCASGLYPDAFAPVAQFVNWIDSIIQ
- proteolytic processing of hCAP18/LL-37 (SDS-PAGE and immunoblot): Elastase treatment generated a band migrating at the same size as synthetic LL-37, and a band at 14 kDa
